Experiment [1] concerns the target T1, human PD-L1 (human, UniProt Q9NZQ7 19-290).
T1 construct: whole, on cells; also called hPD-L1; PD-L1 on CHO-K1/hPD-L1 cells
The experiment in a line: flow cytometry binding to CHOK1/hPDL1 cells; supernatant as % of total reaction volume. As to the method: (§1) In another experiment, the CHO-K1/hPD-L1 cells were incubated with increasing amounts of the neat culture supernatant of the Jurkat parental or Jurkat/hPD-1-Fc-OX40L cells produced as discussed in Example 2. Binding was detected using flow cytometry and the MFI was calculated and plotted as a function of the amount of the neat culture supernatant of Jurkat parental or Jurkat/hPD-1-Fc-OX40L cells. […] Further, the CHO-K1/hOX40 cells were incubated with increasing amounts of the neat culture supernatant of the Jurkat parental or Jurkat/hPD-1-Fc-OX40L cells produced as discussed in Example 2. Binding was detected using flow cytometry and the MFI was calculated and plotted as a function of the amount of the neat culture supernatant of Jurkat parental or Jurkat/hPD-1-Fc-OX40L cells.

Experiment [2] addresses T2, human OX40 (human, UniProt P43489 29-277).
T2 construct: whole, on cells; also called hOX40; OX40 on CHO-K1/hOX40 cells
T2 sequence (looked up): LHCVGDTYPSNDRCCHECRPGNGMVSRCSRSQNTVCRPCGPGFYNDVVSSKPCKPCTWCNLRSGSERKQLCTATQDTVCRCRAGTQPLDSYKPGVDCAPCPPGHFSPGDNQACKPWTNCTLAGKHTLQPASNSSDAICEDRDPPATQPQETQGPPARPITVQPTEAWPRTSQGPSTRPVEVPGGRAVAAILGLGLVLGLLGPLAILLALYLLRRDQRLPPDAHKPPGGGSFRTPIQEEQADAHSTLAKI
The experiment is described as follows: flow cytometry binding to CHOK1/hOX40 cells; supernatant as % of total reaction volume. Here is the method:
as §1
For orientation: Flow cytometry measures light scatter and fluorescence of single cells or particles in a stream.

The target in experiment [3] is anti-human PD-1 antibody. The experiment is described as follows: MSD dual binding assay; Coat: anti-hPD1, Detect: anti-hOX40L; 3-fold dilution series drawn as bars. As to the method: Concentrated, de-salted culture supernatant was prepared as follows: 40 million Jurkat parental cells, Jurkat cells expressing human PD-1-Fc-4-1BBL chimeric protein (Jurkat/hPD-1-Fc-4-1BBL), Jurkat cells expressing human PD-1-Fc-OX40L chimeric protein (Jurkat/hPD-1-Fc-OX40L), or Jurkat cells expressing human CSF1R-Fc-CD40L chimeric protein (Jurkat/hCSF1R-Fc-CD40L) were cultured in 60 mL of media for 48 hours. After this, the media were harvested and concentrated 50-75× using AMICON-15 50K columns. Concentrated supernatant was desalted over a ZEBA desalting column or directly dialyzed in PBS and used in experiments. The resulting supernatant was also termed “neat” supernatant.
The PD-1-Fc-OX40L chimeric protein harbors the extracellular domain of PD-1 protein domain at or near the N-terminus and the extracellular domain of OX40 Ligand (OX40L) protein domain at or near the C-terminus. To understand whether the extracellular domains of PD-1 and OX40L can simultaneously bind to respective antibodies, an anti-human PD-1 antibody was coated on a plate. Three-fold serial dilutions neat culture supernatants of Jurkat parental cells or Jurkat/hPD-1-Fc-OX40L cells were added to the plate. […] The plate was incubated to allow capture of any protein by the plate-bound anti-human PD-1 antibody. […] Binding was detected using the MSD platform.

Experiment [4] addresses T3, universal-heterologous chimeric protein specific anti-Fc antibody. The experiment in a line: sandwich ELISA: capture by anti-Fc antibody, detection by biotinylated anti-human OX40L antibody; Abs450nm against log[Agonist], nM, nM is from the x axis. For orientation: In an ELISA, binding on a coated surface is turned into a signal by an enzyme label.
Experiment [5] concerns the target T3, universal-heterologous chimeric protein …. The experiment in a line: sandwich ELISA: capture by anti-Fc antibody, detection by biotinylated anti-human OX40L antibody; concentrated culture media, the protein concentration in it is not given so the x values are nominal; the fitted value lies beyond the highest point shown (log about 2.8), nM is from the x axis.

The values below come from patent publication US20220259281A1 (SHATTUCK LABS, published 2022).

T1 sequence (Q9NZQ7 19-290): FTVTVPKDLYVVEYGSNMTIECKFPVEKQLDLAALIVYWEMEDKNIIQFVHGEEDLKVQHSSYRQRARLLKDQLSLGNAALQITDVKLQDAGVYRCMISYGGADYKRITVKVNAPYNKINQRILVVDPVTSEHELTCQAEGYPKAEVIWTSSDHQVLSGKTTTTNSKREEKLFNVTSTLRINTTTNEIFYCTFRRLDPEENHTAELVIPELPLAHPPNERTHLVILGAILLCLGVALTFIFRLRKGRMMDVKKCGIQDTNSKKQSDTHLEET

B1: human PD-1-Fc-OX40L heterologous chimeric protein (Fc fusion)
chain: LDSPDRPWNPPTFSPALLVVTEGDNATFTCSFSNTSESFVLNWYRMSPSNQTDKLAAFPEDRSQPGQDCRFRVTQLPNGRDFHMSVVRARRNDSGTYLCGAISLAPKAQIKESLRAELRVTERRAEVPTAHPSPSPRPAGQFQSKYGPPCPPCPAPEFLGGPSVFLFPPKPKDQLMISRTPEVTCVVVDVSQEDPEVQFNWYVDGVEVHNAKTKPREEQFNSTYRVVSVLTVLHQDWLSGKEYKCKVSSKGLPSSIEKTISNATGQPREPQVYTLPPSQEEMTKNQVSLTCLVKGFYPSDIAVEWESNGQPENNYKTTPPVLDSDGSFFLYSRLTVDKSRWQEGNVFSCSVLHEALHNHYTQKSLSLSLGKIEGRMDQVSHRYPRIQSIKVQFTEYKKEKGFILTSQKEDEIMKVQNNSVIINCDGFYLISLKGYFSQEVNISLHYQKDEEPLFQLKKVRSVNSLMVASLTYKDKVYLNVTTDNTSLDDFHVNGGELILIHQNPGEFCVL
notes: Tested as secreted protein in Jurkat supernatant and as purified protein; also called hPD-1-Fc-OX40L; hPD1-Fc-OX40L
Regarding B1, the binding result in experiment [1] and in experiment [2] was “binds” throughout. Besides, the “EC50 (read off the curve)” value in experiment [3] is around 0.08 µg/mL. For the same molecule, the values for the EC50 in experiment [4] and in experiment [5] were 0.0373 µM and 2.69 µM, respectively.

Broadly, the EC50 (read off the curve) is the concentration that produces a half-maximal response. Read a low EC50 (read off the curve) as an effect from little substance. In general, EC50 refers to the concentration needed to bring the measured effect to its halfway point. A higher EC50 goes with weaker potency.
